Kd data for one substance are collected here from article PMC3548785.

The target in the data set is His-ASF/SF2 (UniProt Q07955). Kind of data set: intrinsic tryptophan fluorescence quenching. The following applies: 100 mM KCl, 20 mM Tris-HCl pH 7.5, room temperature, 100 nM His-ASF/SF2, excitation 280 nm, emission 340 nm.
Sequence of His-ASF/SF2 (Q07955 whole entry): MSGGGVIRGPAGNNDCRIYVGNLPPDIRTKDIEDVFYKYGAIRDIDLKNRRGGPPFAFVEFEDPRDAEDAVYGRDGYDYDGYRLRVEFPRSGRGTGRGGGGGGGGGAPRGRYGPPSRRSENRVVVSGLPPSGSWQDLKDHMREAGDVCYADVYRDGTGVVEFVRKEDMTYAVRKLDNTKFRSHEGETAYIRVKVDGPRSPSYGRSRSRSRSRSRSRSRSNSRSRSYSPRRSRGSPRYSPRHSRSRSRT

For orientation: Kd means the free concentration of one partner at which half of the binding sites on the other are occupied at equilibrium, for simple one-to-one binding. In turn, Genomic HDV RNA registered a Kd of 40 nM.
